Reference: US10202593B2, “Evolved sortases and uses thereof” (President and Fellows of Harvard College, priority 2013, dated 2019)
“And” between values parts separate entries of the source, which are not always exact repeats. Equal entries are not always repeated. Where two headings read alike, the source gives them in different places.

How the values were obtained:
[1] = tested on: LAETG (Abz-LAETGK(Dnp)-CONH2); assay: In vitro sortase kinetics HPLC assay, LAETG substrate; type: biochemical; details: for KN: eight GGG concentrations; for Rel. Activity: kcat/Km of the enzyme's preferred substrate relative to kcat/Km on this substrate
Description: See below for details on sortase expression and purification, and on the synthesis of Abz-LPETGK(Dnp)-CONH2 (SEQ ID NO: 19). […] Reactions were initiated with the addition of enzyme and incubated at 22.5° C. for 3 to 20 minutes before quenching with 0.5 volumes of 1 M HCl. Five to ten nmol of peptide from the quenched reactions were injected onto an analytical reverse-phase Eclipse XDB-C18 HPLC column (4.6×150 mm, 5 μm, Agilent Technologies) and chromatographed using a gradient of 10 to 65% acetonitrile with 0.1% TFA in 0.1% aqueous TFA over 13 minutes. Retention times under these conditions for the Abz-LPETGK(Dnp)-CONH2 (SEQ ID NO: 19) substrate, the released GKDnp peptide, and the Abz-LPETGGG-COOH (SEQ ID NO: 20) product were 12.8, 10.4, and 9.1 min, respectively. To calculate the percent conversion, the ratio of the integrated areas of the Abz-LPETGGG-COOH (SEQ ID NO: 20) and Abz-LPETGK(Dnp)-CONH2 (SEQ ID NO: 19) peptide Abs220 peaks was compared to a standard curve generated by mixing the product and starting peptide in known ratios. To determine […] and Km, reaction rates were fit to the Michaelis-Menten equation using OriginPro 7.0 software. All kinetics values reported represent the average of at least three measurements. Percent conversion was also calculated by using the ratio of the integrated areas of the GK(Dnp)-CONH2 and Abz-LPETGK(Dnp)-CONH2 peptide Abs355 peaks were compared directly (Example 5). To determine kcat and Km, LPETG, reaction rates were fit to the Michaelis-Menten equation using Microsoft Excel using the Solver add-in. To determine Km,GGG and KH, reaction rates were fit to the modified Michaelis-Menten, for which KH is as defined when KH<<Km,GGG.
Assays to determine eSrtA, eSrtA(2A-9) and eSrtA(4S-9) specificity were performed by preparing 10 μM stocks of Abz-LXEXGK(Dnp) (SEQ ID NO: 75) peptides in 300 mM Tris pH 7.5, 150 mM NaCl, 5 mM CaCl2, 5% v/v DMSO, and 100 mM Gly-Gly-Gly-COOH (GGG). Reactions were performed by adding eSrtA(2A-9) to a final concentration of 450 nM, eSrtA(4S-9) to a final concentration of 115 nM or eSrtA to a final concentration of 47.5 nM and a final volume of 100 μL, then incubating at 22.5° C. for 15 minutes. Reactions were quenched by the addition of 0.2 volumes of 5 M HCl, then were injected onto an analytical reverse-phase Eclipse XDB-C18 HPLC column (4.6×150 mm, 5 μm, Agilent Technologies) and chromatographed using a gradient of 10 to 65% acetonitrile with 0.1% TFA in 0.1% aqueous TFA over 13 minutes. Retention times under these conditions for the Abz-LPETGK(Dnp)-CONH2 (SEQ ID NO: 19) substrate, the released GKDnp peptide, and the Abz-LPETGGG-COOH (SEQ ID NO: 20) product were 12.8, 10.4, and 9.1 min, respectively, while the remaining Abz-LXEXGK(Dnp)-CONH2 (SEQ ID NO: 74) substrates varied in retention time between 9 and 13 minutes. To calculate the percent conversion, the ratio of the integrated areas of the GK(Dnp)-CONH2 and Abz-LPETGK(Dnp)-CONH2 (SEQ ID NO: 19) peptide Abs355 peaks were compared directly. Subsequent determination of kcat/Km and KH were performed as described for in vitro SrtA characterization.
In each case, rate constants were determined by measuring enzyme velocity at eight different substrate concentrations by HPLC assay, then fit using nonlinear regression to the Michaelis-Menten equation, yielding kcat and Km. KH was calculated by measuring enzyme velocity at 1 mM target substrate and eight different GGG concentrations by HPLC assay, then fitting the resulting curves using nonlinear regression to the modified Michaelis-Menten equation.

[2] = tested on: LPETG (Abz-LPETGK(Dnp)-CONH2); assay: In vitro sortase kinetics HPLC assay, LPETG substrate; type: biochemical; details: for KN: eight GGG concentrations; for KH,LPETG: LPETG substrate; for Rel. Activity: kcat/Km of the enzyme's preferred substrate relative to kcat/Km on this substrate
Procedure, shortened: (§1)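 Abz-LXEXGK(Dnp) peptides in 300 mM Tris pH 7.5, 150 mM NaCl, 5 mM CaCl2, 5% DMSO, GGG; 22.5° C., acid-quenched, converted fraction by reverse-phase HPLC peak areas. kcat and Km from eight substrate concentrations fit to Michaelis-Menten; KH at 1 mM substrate over eight GGG levels.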

[3] = tested on: LPESG (Abz-LPESGK(Dnp)-CONH2); assay: In vitro sortase kinetics HPLC assay, LPESG substrate; type: biochemical; details: for Rel. Activity: kcat/Km of the enzyme's preferred substrate relative to kcat/Km on this substrate
Procedure, shortened: as §1

[4] = Differential scanning fluorimetry for thermal melting curves; type: physicochemical
Description: FIGS. 25A-C show thermal melting curves for eSrtA variants. Each protein was freshly expressed and purified, then diluted to 40 μM in 100 mM Tris pH 7.5, 500 mM NaCl. Differential scanning fluorimetry was performed using the Life Technologies Protein Thermal Shift™ Dye kit according to manufacturers' instructions. Thermal scanning was performed on Biorad CFX96-Real Time PCR (25° C. to 99° C., 0.2° C./2s increments). To calculate Tm, fluorescence intensity was fit to the Boltzmann equation using Microsoft Excel using the Solver add-in. Melting curves were plotted with best-fit fluorescence intensities that were normalized to maximum fluorescence intensity. Tm values are shown with their standard deviations as determined from three technical replicates.
To determine thermal stability of eSrtA, eSrtA(2A-9), eSrtA(4S-9), and variants thereof, each protein was freshly expressed and purified, then diluted to 40 μM in 100 mM Tris pH 7.5, 500 mM NaCl. Differential scanning fluorimetry was performed using the Life Technologies Protein Thermal Shift™ Dye kit according to manufacturers' instructions. […] To calculate Tm, fluorescence intensity was fit to the Boltzmann equation using Microsoft Excel using the Solver add-in. Melting curves were plotted with best-fit fluorescence intensities that were normalized to maximum fluorescence intensity.

[5] = Sub LAETG, 100 mM GGG, read-out: Km
[6] = Table 2, Sub LAETG, read-out: Km
[7] = Sub LPETG, 100 mM GGG, read-out: Km
[8] = Table 2, Sub LPETG, read-out: Km
[9] = Sub LPESG, 100 mM GGG, read-out: Km
[10] = Table 2, Sub LPESG, read-out: Km
[11] = GGG varied, substrate 2A (LAETG)

Molecule	KH ([1]; 1 mM LAETG)	KN ([1]; 1 mM LAETG)	Km ([1]; 1 mM LAETG, read-out: Km,GGG)	Kcat (Hz) ([1]; Sub LAETG, 100 mM GGG)	Km [1, 5]	Rel. Activity ([1]; Sub LAETG)	Kcat (Hz) ([1]; Table 2, Sub LAETG)	Km [1, 6]	KH ([2]; 1 mM LPETG)	KN ([2]; 1 mM LPETG)	Km ([2]; 1 mM LPETG, read-out: Km,GGG)	KH,LPETG [2]	Kcat (Hz) ([2]; Sub LPETG, 100 mM GGG)	Km [2, 7]	Rel. Activity ([2]; Sub LPETG)	Kcat (Hz) ([2]; Table 2, Sub LPETG)	Km [2, 8]	Kcat (Hz) ([3]; Sub LPESG, 100 mM GGG)	Km [3, 9]	Rel. Activity ([3]; Sub LPESG)	also measured
eSrtA (protein) QAKPQIPKDKSKVAGYIEIPDADIKEPVYPGPATREQLNRGVSFAEENESLDDQNISIAGHTFIDRPNYQFTNLKAAKKGSMVYFKVGNETRKYKMTSIRNVKPTAVEVLDEQKGKDKQLTLITCDDYNEETGVWETRKIFVATEVK	26.5 ± 0.6 µM	26.5 ± 0.6 µM	807 ± 56 µM	1.31 ± 0.26 Hz	6070 ± 870 µM	103.3	1.31 ± 0.26 Hz	6070 ± 870 µM	32.8 ± 2.4 µM	32.8 ± 2.4 µM	1617 ± 13 µM	32.8 ± 2.4 µM	5.4 ± 0.4 Hz	230 ± 20 µM	1	5.4 ± 0.4 Hz	230 ± 20 µM	1.46 ± 0.13 Hz	318 ± 58 µM	4.9	preference for LPETG over LAETG ([1]; ratio of kcat/KM): 103 fold; specificity (relative cat. Efficiency, fold) ([1]; ratio of kcat/Km between 2A (LAETG) and wt (LPETG) substrates, favoured over disfavoured): 122.6 fold; kcat, 10 mM GGG (Hz) ([1]; substrate 2A (LAETG), 10 mM GGG): 1.316 Hz; Km ([1]; substrate 2A (LAETG), read-out: Km, LxExG): 6160 µM; Khydrolysis ([2]; 1 mM wt (LPETG) substrate): 22.59 µM; kcat, 1 mM LxExG (Hz) ([2]; 1 mM wt (LPETG) substrate, GGG varied): 7.245 Hz; Km ([2]; 1 mM wt (LPETG) substrate, read-out: Km, GGG): 2990 µM; kL/KL/KH ([2]; substrate wt (LPETG)): 1.20E+09; kHydrolysis (Hz) ([2]; substrate wt (LPETG), 1 mM, GGG varied): 0.05546 Hz; kcat, 10 mM GGG (Hz) ([2]; substrate wt (LPETG), 10 mM GGG): 5.622 Hz; Km ([2]; substrate wt (LPETG), read-out: Km, LxExG): 208 µM; KH ([3]; 1 mM LPESG): 76 ± 19 µM; KN ([3]; 1 mM LPESG, eight GGG concentrations): 76 ± 19 µM; Km ([3]; 1 mM LPESG, read-out: Km,GGG): 22000 ± 900 µM; Kcat (Hz) ([3]; Table 2, Sub LPESG): 1.46 ± 0.13 Hz; Km [3, 10]: 318 ± 58 µM; kcat, 10 mM GGG (Hz) ([3]; substrate 4S (LPESG), 10 mM GGG): 1.74 Hz; Km ([3]; substrate 4S (LPESG), read-out: Km, LxExG): 672 µM
eSrtA(2A-9): P94R, S102C, A104H, E105D, K138P, K152I, N160K, K162H, T164N, D165A, K173E, I182V, K190E, T196S (protein) QAKPQIPKDKSKVAGYIEIPDADIKEPVYPGPATREQLNRGVCFHDENESLDDQNISIAGHTFIDRPNYQFTNLKAAKPGSMVYFKVGNETRIYKMTSIRKVHPNAVEVLDEQEGKDKQLTLVTCDDYNEETGVWESRKIFVATEVK	33 ± 4 µM	33 ± 4 µM	1480 ± 190 µM	2.23 ± 0.02 Hz	265 ± 9 µM	1	2.23 ± 0.02 Hz	265 ± 9 µM	27.1 ± 0.1 µM	27.1 ± 0.1 µM	585 ± 3 µM	18.7 ± 3.3 µM	0.0209 ± 0.004 Hz	1270 ± 62 µM	510	0.0209 ± 0.0004 Hz	1270 ± 62 µM	0.0066 ± 0.0006 Hz	4800 ± 1200 µM	5943	preference for LAETG over LPESG [1]: > 1000 :1; Avg kcat (Hz) ([1]; Example 5 variants, substrate 2A (LAETG)): 2.23 Hz; Km ([1]; Example 5 variants, substrate 2A (LAETG), read-out: Avg KM): 265 µM; Avg kHydro (Hz) [1, 11]: 0.03506 Hz; Avg kcat (Hz) [1, 11]: 1.587 Hz; Km ([1]; KM for GGG, substrate 2A (LAETG), read-out: Avg KM): 1480 µM; change in specificity for LAETG versus LPETG relative to eSrtA ([1]; ratio of (kcat/KM)target to (kcat/KM)LPETG, relative to eSrtA): 51,000 fold; preference for LAETG over LPETG ([1]; ratio of kcat/KM): ~500 fold and 510 fold; Specificity (relative catalytic efficiency, fold) ([1]; ratio of kcat/KM between 2A (LAETG) and wt (LPETG)): 509.8 fold; Avg KH ([1]; substrate 2A (LAETG)): 32.79 µM; Avg kcat (Hz) ([2]; Example 5 variants, substrate wt (LPETG)): 0.02091 Hz; Km ([2]; Example 5 variants, substrate wt (LPETG), read-out: Avg KM): 1270 µM; activity on LPETG ([2]; round 9 clones): minimally active on LPETG; ΔTm compared to eSrtA [4]: ~4.4 °C; activity on LPESG [3]: negligible activity; Kcat (Hz) ([3]; Table 2, Sub LPESG): 0.0066 ± 0.0006 Hz; Km [3, 10]: 4800 ± 1200 µM
